The supplement of paper PMC10065799, “High-throughput profiling of sequence recognition by tyrosine kinases and SH2 domains using bacterial peptide display” (eLife, 2023)

Biological target: FGFR3 (UniProt P22607)
Assay: phosphorylation enrichment, bacterial display (enrichment ratio); higher = better substrate or ligand; peptides without Tyr show the background
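Further: 11-residue human phosphosite peptides and single-mutation variants displayed on the E. coli surface, counted by deep sequencing, each peptide's frequency after selection divided by its frequency in the unselected input library; frequency after pTyr selection over input frequency; kinase dosed for 20-30% of maximal phosphorylation in three min.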

FGFR3, sequence (P22607 whole entry, looked up): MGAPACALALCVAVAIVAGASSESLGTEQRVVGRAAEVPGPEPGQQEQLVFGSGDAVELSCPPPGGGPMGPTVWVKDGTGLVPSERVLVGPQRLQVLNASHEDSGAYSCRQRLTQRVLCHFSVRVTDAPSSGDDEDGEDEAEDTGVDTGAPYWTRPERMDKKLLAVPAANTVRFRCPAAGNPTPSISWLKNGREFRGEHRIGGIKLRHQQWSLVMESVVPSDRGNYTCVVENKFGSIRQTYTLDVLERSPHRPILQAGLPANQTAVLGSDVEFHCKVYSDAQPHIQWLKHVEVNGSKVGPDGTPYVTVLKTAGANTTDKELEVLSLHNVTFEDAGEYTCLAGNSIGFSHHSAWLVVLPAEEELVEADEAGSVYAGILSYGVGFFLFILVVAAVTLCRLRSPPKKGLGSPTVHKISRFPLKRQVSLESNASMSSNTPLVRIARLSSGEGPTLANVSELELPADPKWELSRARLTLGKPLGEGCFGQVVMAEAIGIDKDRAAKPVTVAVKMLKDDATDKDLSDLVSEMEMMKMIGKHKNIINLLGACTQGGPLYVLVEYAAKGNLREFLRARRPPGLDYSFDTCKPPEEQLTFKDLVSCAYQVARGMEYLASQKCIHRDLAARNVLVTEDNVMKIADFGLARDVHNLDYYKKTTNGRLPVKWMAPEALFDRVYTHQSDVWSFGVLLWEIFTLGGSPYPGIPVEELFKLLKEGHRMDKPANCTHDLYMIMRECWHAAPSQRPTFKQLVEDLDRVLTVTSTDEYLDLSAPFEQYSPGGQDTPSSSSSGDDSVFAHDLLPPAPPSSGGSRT

| Sequence | phosphorylation enrichment |
| --- | --- |
| PCNLIYFGEHP [TRPV6_Y201] | 1.68 |
| KYGTNYRVGSS [CPO_Y278] | 0.362 |
| RLQKLYLDRNL [IGFALS_Y248] | 0.787 |
| DRTVNYVLKCR [PLEKHG4_Y1068] | 0.778 |
| VDGSVYKLPPS [GCK_Y413_H416P] | 0.492 |
| ALVFLYFCIIF [SIGLEC12_Y494] | 0.803 |
| FSQNICIQNRN [PKP2_Y631_Y631C_YF] | 0.584 |
| DELDKYSEALK [TPM1_Y60] | 0.59 |
| FDDIAYIRKAL [PIK3CA_Y1021_T1025A] | 0.461 |
| VHVEVYDPPSP | 0.826 |
| QITQVYGFYDE [PPP2CA_Y127] | 1.27 |
| LKGQVYILGQE [ASS1_Y359_R363Q] | 1.26 |
| YHLGKYLQEVL [KLB_Y910_Y906H] | 0.739 |
| SRGLAYPARSA [LEMD2_Y122_P126S] | 0.275 |
| FLEKFYKFGCR [NNMT_Y25_S29C_YF] | 0.696 |
| NTVDFYDLFGG [PTPN11_Y63_G60V_YF] | 0.644 |
| GLSSAYGGLTS [KRT8_Y427] | 0.449 |

| Sequence | phosphorylation enrichment |
| --- | --- |
| FGSSSYRGAGG [RPA2_Y14_G15R_YF] | 0.584 |
| VYLGAYDHFLP [SLC22A5_Y486_R488H] | 1.62 |
| YVSLIYTNYEA [GSTP1_Y109_I105V] | 5.46 |
| GVMLLYFGRFN [ADGRD1_Y85_T82M_YF] | 0.705 |
| HNQDDYSYPSR [LDLR_Y845_G844D] | 0.79 |
| HNGDRYFKGIV [DCX_Y64_R59H] | 0.542 |
| EVASVYQSFQP [MAVS_Y92_YF] | 0.991 |
| RGRDSYGGPPR [RBMX_Y190] | 0.563 |
| ARGMEYLASKN [FGFR1_Y613_K618N] | 0.447 |
| RASSVYTRSTG [CCR5_Y339] | 0.47 |
| DSYSSYCNAVA [SLC20A2_Y436] | 0.664 |
| DFTEAYNPKIK [CLK1_Y305_YF] | 0.649 |
| RIVTTYIWERE [DNM2_Y463_R465W] | 0.862 |
| LDFNEYFRNLN [HPRT1_Y198_D201N_YF] | 1.6 |
| PYSNPYENSLI [EPOR_Y489] | 1.14 |
| KAWGIYDCQQP [CYP3A7_Y75_V71A] | 0.852 |

Biological target: Fyn (UniProt P06241)
Assay: as above

Fyn, sequence (P06241 whole entry, looked up): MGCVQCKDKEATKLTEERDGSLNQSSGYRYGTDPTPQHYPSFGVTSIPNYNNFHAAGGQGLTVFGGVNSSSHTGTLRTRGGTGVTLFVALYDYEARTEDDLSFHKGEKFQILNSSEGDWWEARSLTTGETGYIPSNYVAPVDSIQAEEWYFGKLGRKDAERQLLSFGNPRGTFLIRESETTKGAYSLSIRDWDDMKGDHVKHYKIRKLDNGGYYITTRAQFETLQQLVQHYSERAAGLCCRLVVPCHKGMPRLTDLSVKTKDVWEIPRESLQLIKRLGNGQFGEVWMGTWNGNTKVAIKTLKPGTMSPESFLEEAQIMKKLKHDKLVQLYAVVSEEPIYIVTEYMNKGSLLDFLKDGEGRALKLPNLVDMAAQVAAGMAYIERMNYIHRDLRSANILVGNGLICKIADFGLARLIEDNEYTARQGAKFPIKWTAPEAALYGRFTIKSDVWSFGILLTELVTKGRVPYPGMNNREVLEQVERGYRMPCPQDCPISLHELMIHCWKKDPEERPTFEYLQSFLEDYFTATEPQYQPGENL

| Sequence | phosphorylation enrichment |
| --- | --- |
| PCNLIYFGEHP [TRPV6_Y201] | 3.66 |
| KYGTNYRVGSS [CPO_Y278] | 0.416 |
| RLQKLYLDRNL [IGFALS_Y248] | 0.811 |
| DRTVNYVLKCR [PLEKHG4_Y1068] | 0.515 |
| VDGSVYKLPPS [GCK_Y413_H416P] | 2.81 |
| ALVFLYFCIIF [SIGLEC12_Y494] | 0.552 |
| FSQNICIQNRN [PKP2_Y631_Y631C_YF] | 0.384 |
| DELDKYSEALK [TPM1_Y60] | 0.443 |
| FDDIAYIRKAL [PIK3CA_Y1021_T1025A] | 0.427 |
| VHVEVYDPPSP | 0.794 |
| QITQVYGFYDE [PPP2CA_Y127] | 9.45 |
| LKGQVYILGQE [ASS1_Y359_R363Q] | 0.816 |
| YHLGKYLQEVL [KLB_Y910_Y906H] | 0.524 |
| SRGLAYPARSA [LEMD2_Y122_P126S] | 0.316 |
| FLEKFYKFGCR [NNMT_Y25_S29C_YF] | 0.512 |
| NTVDFYDLFGG [PTPN11_Y63_G60V_YF] | 4.46 |
| GLSSAYGGLTS [KRT8_Y427] | 0.513 |

| Sequence | phosphorylation enrichment |
| --- | --- |
| FGSSSYRGAGG [RPA2_Y14_G15R_YF] | 0.494 |
| VYLGAYDHFLP [SLC22A5_Y486_R488H] | 6.16 |
| YVSLIYTNYEA [GSTP1_Y109_I105V] | 5.04 |
| GVMLLYFGRFN [ADGRD1_Y85_T82M_YF] | 0.441 |
| HNQDDYSYPSR [LDLR_Y845_G844D] | 0.664 |
| HNGDRYFKGIV [DCX_Y64_R59H] | 0.515 |
| EVASVYQSFQP [MAVS_Y92_YF] | 13.6 |
| RGRDSYGGPPR [RBMX_Y190] | 0.721 |
| ARGMEYLASKN [FGFR1_Y613_K618N] | 0.327 |
| RASSVYTRSTG [CCR5_Y339] | 0.608 |
| DSYSSYCNAVA [SLC20A2_Y436] | 0.819 |
| DFTEAYNPKIK [CLK1_Y305_YF] | 0.453 |
| RIVTTYIWERE [DNM2_Y463_R465W] | 0.712 |
| LDFNEYFRNLN [HPRT1_Y198_D201N_YF] | 1 |
| PYSNPYENSLI [EPOR_Y489] | 0.906 |
| KAWGIYDCQQP [CYP3A7_Y75_V71A] | 7.28 |

Biological target: Hck (UniProt P08631)
Assay: as above

Hck, sequence (P08631 whole entry, looked up): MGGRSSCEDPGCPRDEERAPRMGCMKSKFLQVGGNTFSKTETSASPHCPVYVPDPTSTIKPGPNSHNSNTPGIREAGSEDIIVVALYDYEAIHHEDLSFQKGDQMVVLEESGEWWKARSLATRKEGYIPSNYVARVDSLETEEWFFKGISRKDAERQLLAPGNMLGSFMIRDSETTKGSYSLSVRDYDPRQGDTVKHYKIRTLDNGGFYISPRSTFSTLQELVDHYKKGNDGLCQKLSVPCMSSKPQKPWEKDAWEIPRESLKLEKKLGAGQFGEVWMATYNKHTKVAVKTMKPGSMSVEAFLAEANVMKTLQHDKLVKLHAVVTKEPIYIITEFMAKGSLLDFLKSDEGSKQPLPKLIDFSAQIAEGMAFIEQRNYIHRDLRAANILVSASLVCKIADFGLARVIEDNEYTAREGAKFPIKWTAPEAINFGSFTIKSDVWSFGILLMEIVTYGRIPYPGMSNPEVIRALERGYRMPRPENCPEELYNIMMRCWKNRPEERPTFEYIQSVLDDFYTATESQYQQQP

| Sequence | phosphorylation enrichment |
| --- | --- |
| PCNLIYFGEHP [TRPV6_Y201] | 2.08 |
| KYGTNYRVGSS [CPO_Y278] | 0.415 |
| RLQKLYLDRNL [IGFALS_Y248] | 0.975 |
| DRTVNYVLKCR [PLEKHG4_Y1068] | 0.688 |
| VDGSVYKLPPS [GCK_Y413_H416P] | 0.61 |
| ALVFLYFCIIF [SIGLEC12_Y494] | 0.964 |
| FSQNICIQNRN [PKP2_Y631_Y631C_YF] | 0.392 |
| DELDKYSEALK [TPM1_Y60] | 0.489 |
| FDDIAYIRKAL [PIK3CA_Y1021_T1025A] | 0.495 |
| VHVEVYDPPSP | 0.833 |
| QITQVYGFYDE [PPP2CA_Y127] | 3.7 |
| LKGQVYILGQE [ASS1_Y359_R363Q] | 1.07 |
| YHLGKYLQEVL [KLB_Y910_Y906H] | 0.498 |
| SRGLAYPARSA [LEMD2_Y122_P126S] | 0.25 |
| FLEKFYKFGCR [NNMT_Y25_S29C_YF] | 0.443 |
| NTVDFYDLFGG [PTPN11_Y63_G60V_YF] | 3.05 |
| GLSSAYGGLTS [KRT8_Y427] | 0.545 |

| Sequence | phosphorylation enrichment |
| --- | --- |
| FGSSSYRGAGG [RPA2_Y14_G15R_YF] | 0.523 |
| VYLGAYDHFLP [SLC22A5_Y486_R488H] | 5.47 |
| YVSLIYTNYEA [GSTP1_Y109_I105V] | 3.62 |
| GVMLLYFGRFN [ADGRD1_Y85_T82M_YF] | 0.531 |
| HNQDDYSYPSR [LDLR_Y845_G844D] | 0.651 |
| HNGDRYFKGIV [DCX_Y64_R59H] | 0.429 |
| EVASVYQSFQP [MAVS_Y92_YF] | 11 |
| RGRDSYGGPPR [RBMX_Y190] | 0.64 |
| ARGMEYLASKN [FGFR1_Y613_K618N] | 0.337 |
| RASSVYTRSTG [CCR5_Y339] | 0.741 |
| DSYSSYCNAVA [SLC20A2_Y436] | 0.788 |
| DFTEAYNPKIK [CLK1_Y305_YF] | 0.505 |
| RIVTTYIWERE [DNM2_Y463_R465W] | 0.619 |
| LDFNEYFRNLN [HPRT1_Y198_D201N_YF] | 0.979 |
| PYSNPYENSLI [EPOR_Y489] | 0.679 |
| KAWGIYDCQQP [CYP3A7_Y75_V71A] | 6.67 |

Biological target: EPHB2 (UniProt P29323)
Assay: as above

EPHB2, sequence (P29323 whole entry, looked up): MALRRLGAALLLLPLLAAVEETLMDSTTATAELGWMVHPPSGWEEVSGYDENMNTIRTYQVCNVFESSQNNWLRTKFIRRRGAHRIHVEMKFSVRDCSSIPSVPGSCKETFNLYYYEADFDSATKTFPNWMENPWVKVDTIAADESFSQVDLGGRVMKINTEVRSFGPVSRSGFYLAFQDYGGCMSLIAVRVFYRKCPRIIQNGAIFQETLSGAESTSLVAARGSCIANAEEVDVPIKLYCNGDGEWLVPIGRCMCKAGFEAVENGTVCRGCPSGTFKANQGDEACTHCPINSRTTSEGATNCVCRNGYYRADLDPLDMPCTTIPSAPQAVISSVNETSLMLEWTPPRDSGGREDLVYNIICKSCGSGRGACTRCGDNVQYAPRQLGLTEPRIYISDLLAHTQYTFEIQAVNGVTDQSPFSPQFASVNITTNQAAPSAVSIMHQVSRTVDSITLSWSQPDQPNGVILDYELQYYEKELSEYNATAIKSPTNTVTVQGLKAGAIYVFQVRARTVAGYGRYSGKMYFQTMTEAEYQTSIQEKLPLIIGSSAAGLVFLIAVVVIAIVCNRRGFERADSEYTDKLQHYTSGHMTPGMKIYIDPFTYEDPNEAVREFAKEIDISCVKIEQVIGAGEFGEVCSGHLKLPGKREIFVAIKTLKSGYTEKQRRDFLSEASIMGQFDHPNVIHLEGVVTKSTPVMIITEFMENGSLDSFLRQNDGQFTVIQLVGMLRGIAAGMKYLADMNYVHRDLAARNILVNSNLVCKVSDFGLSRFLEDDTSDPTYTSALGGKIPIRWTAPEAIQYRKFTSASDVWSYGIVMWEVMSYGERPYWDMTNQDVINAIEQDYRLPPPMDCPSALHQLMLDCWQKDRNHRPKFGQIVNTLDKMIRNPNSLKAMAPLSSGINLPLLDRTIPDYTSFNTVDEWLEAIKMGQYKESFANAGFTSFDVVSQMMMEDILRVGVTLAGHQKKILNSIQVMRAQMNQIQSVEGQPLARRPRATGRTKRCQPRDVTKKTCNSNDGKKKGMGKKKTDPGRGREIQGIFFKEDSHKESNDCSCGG

| Sequence | phosphorylation enrichment |
| --- | --- |
| PCNLIYFGEHP [TRPV6_Y201] | 0.745 |
| KYGTNYRVGSS [CPO_Y278] | 0.388 |
| RLQKLYLDRNL [IGFALS_Y248] | 0.43 |
| DRTVNYVLKCR [PLEKHG4_Y1068] | 0.67 |
| VDGSVYKLPPS [GCK_Y413_H416P] | 0.563 |
| ALVFLYFCIIF [SIGLEC12_Y494] | 0.483 |
| FSQNICIQNRN [PKP2_Y631_Y631C_YF] | 0.524 |
| DELDKYSEALK [TPM1_Y60] | 0.577 |
| FDDIAYIRKAL [PIK3CA_Y1021_T1025A] | 0.448 |
| VHVEVYDPPSP | 0.572 |
| QITQVYGFYDE [PPP2CA_Y127] | 1.12 |
| LKGQVYILGQE [ASS1_Y359_R363Q] | 0.848 |
| YHLGKYLQEVL [KLB_Y910_Y906H] | 0.724 |
| SRGLAYPARSA [LEMD2_Y122_P126S] | 0.334 |
| FLEKFYKFGCR [NNMT_Y25_S29C_YF] | 0.506 |
| NTVDFYDLFGG [PTPN11_Y63_G60V_YF] | 0.618 |
| GLSSAYGGLTS [KRT8_Y427] | 0.347 |

| Sequence | phosphorylation enrichment |
| --- | --- |
| FGSSSYRGAGG [RPA2_Y14_G15R_YF] | 0.551 |
| VYLGAYDHFLP [SLC22A5_Y486_R488H] | 7.25 |
| YVSLIYTNYEA [GSTP1_Y109_I105V] | 2.87 |
| GVMLLYFGRFN [ADGRD1_Y85_T82M_YF] | 0.528 |
| HNQDDYSYPSR [LDLR_Y845_G844D] | 2.52 |
| HNGDRYFKGIV [DCX_Y64_R59H] | 0.344 |
| EVASVYQSFQP [MAVS_Y92_YF] | 0.846 |
| RGRDSYGGPPR [RBMX_Y190] | 0.613 |
| ARGMEYLASKN [FGFR1_Y613_K618N] | 0.32 |
| RASSVYTRSTG [CCR5_Y339] | 0.552 |
| DSYSSYCNAVA [SLC20A2_Y436] | 0.995 |
| DFTEAYNPKIK [CLK1_Y305_YF] | 0.572 |
| RIVTTYIWERE [DNM2_Y463_R465W] | 0.455 |
| LDFNEYFRNLN [HPRT1_Y198_D201N_YF] | 1.13 |
| PYSNPYENSLI [EPOR_Y489] | 0.714 |
| KAWGIYDCQQP [CYP3A7_Y75_V71A] | 4.21 |
